Experimental data published in patent US20210388087A1 (Chugai, published 2021).

Target: T1, Human CD137 ECD (human)
T1 construct: also called 4-1BB
Test: SPR, vs parent H183/L072

T1 sequence (chain, as listed by the source limits assumed): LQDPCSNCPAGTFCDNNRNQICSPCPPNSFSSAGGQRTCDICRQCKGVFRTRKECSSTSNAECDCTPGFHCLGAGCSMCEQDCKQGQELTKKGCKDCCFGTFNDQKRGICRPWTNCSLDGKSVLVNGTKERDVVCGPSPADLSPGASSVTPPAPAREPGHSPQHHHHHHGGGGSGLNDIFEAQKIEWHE

fold change of affinity [fold]	Binder
1.2	dBBDu183H G65S / dBBDu072L (antibody, name in Kabat numbering, V domains shown, as m1, one VH change) VH: QVQLVESGGGLVQPGRSLRLSCAASGFTFSNAWMHWVRQAPGKGLEWVAQIKDKGNAYAAYYAPSVKSRFTISRDDSKNSIYLQMNSLKTEDTAVYYCHYVHYASASTVLPAFGVDAWGQGTTVTVSS VL: DIVMTQSPLSLPVTPGEPASISCQASQELVHMNRNTYLHWYQQKPGQAPRLLIYKVSNRFPGVPDRFSGSGSGTDFTLKISRVEAEDVGVYYCAQGTSVPFTFGQGTKLEIK
0.1	dBBDu183H H93N / dBBDu072L (antibody, name in Kabat numbering, V domains shown, as m1, one VH change) VH: QVQLVESGGGLVQPGRSLRLSCAASGFTFSNAWMHWVRQAPGKGLEWVAQIKDKGNAYAAYYAPSVKGRFTISRDDSKNSIYLQMNSLKTEDTAVYYCNYVHYASASTVLPAFGVDAWGQGTTVTVSS VL: DIVMTQSPLSLPVTPGEPASISCQASQELVHMNRNTYLHWYQQKPGQAPRLLIYKVSNRFPGVPDRFSGSGSGTDFTLKISRVEAEDVGVYYCAQGTSVPFTFGQGTKLEIK
0.8	dBBDu183H H96V / dBBDu072L (antibody, name in Kabat numbering, V domains shown, as m1, one VH change) VH: QVQLVESGGGLVQPGRSLRLSCAASGFTFSNAWMHWVRQAPGKGLEWVAQIKDKGNAYAAYYAPSVKGRFTISRDDSKNSIYLQMNSLKTEDTAVYYCHYVVYASASTVLPAFGVDAWGQGTTVTVSS VL: DIVMTQSPLSLPVTPGEPASISCQASQELVHMNRNTYLHWYQQKPGQAPRLLIYKVSNRFPGVPDRFSGSGSGTDFTLKISRVEAEDVGVYYCAQGTSVPFTFGQGTKLEIK
1.1	dBBDu183H K64D / dBBDu072L (antibody, name in Kabat numbering, V domains shown, as m1, one VH change) VH: QVQLVESGGGLVQPGRSLRLSCAASGFTFSNAWMHWVRQAPGKGLEWVAQIKDKGNAYAAYYAPSVDGRFTISRDDSKNSIYLQMNSLKTEDTAVYYCHYVHYASASTVLPAFGVDAWGQGTTVTVSS VL: DIVMTQSPLSLPVTPGEPASISCQASQELVHMNRNTYLHWYQQKPGQAPRLLIYKVSNRFPGVPDRFSGSGSGTDFTLKISRVEAEDVGVYYCAQGTSVPFTFGQGTKLEIK
1.4	dBBDu183H H96F / dBBDu072L (antibody, name in Kabat numbering, V domains shown, as m1, one VH change) VH: QVQLVESGGGLVQPGRSLRLSCAASGFTFSNAWMHWVRQAPGKGLEWVAQIKDKGNAYAAYYAPSVKGRFTISRDDSKNSIYLQMNSLKTEDTAVYYCHYVFYASASTVLPAFGVDAWGQGTTVTVSS VL: DIVMTQSPLSLPVTPGEPASISCQASQELVHMNRNTYLHWYQQKPGQAPRLLIYKVSNRFPGVPDRFSGSGSGTDFTLKISRVEAEDVGVYYCAQGTSVPFTFGQGTKLEIK
0.5	dBBDu183H H96T / dBBDu072L (antibody, name in Kabat numbering, V domains shown, as m1, one VH change) VH: QVQLVESGGGLVQPGRSLRLSCAASGFTFSNAWMHWVRQAPGKGLEWVAQIKDKGNAYAAYYAPSVKGRFTISRDDSKNSIYLQMNSLKTEDTAVYYCHYVTYASASTVLPAFGVDAWGQGTTVTVSS VL: DIVMTQSPLSLPVTPGEPASISCQASQELVHMNRNTYLHWYQQKPGQAPRLLIYKVSNRFPGVPDRFSGSGSGTDFTLKISRVEAEDVGVYYCAQGTSVPFTFGQGTKLEIK
1.1	dBBDu183H K64F / dBBDu072L (antibody, name in Kabat numbering, V domains shown, as m1, one VH change) VH: QVQLVESGGGLVQPGRSLRLSCAASGFTFSNAWMHWVRQAPGKGLEWVAQIKDKGNAYAAYYAPSVFGRFTISRDDSKNSIYLQMNSLKTEDTAVYYCHYVHYASASTVLPAFGVDAWGQGTTVTVSS VL: DIVMTQSPLSLPVTPGEPASISCQASQELVHMNRNTYLHWYQQKPGQAPRLLIYKVSNRFPGVPDRFSGSGSGTDFTLKISRVEAEDVGVYYCAQGTSVPFTFGQGTKLEIK
1.1	dBBDu183H K64G / dBBDu072L (antibody, name in Kabat numbering, V domains shown, as m1, one VH change) VH: QVQLVESGGGLVQPGRSLRLSCAASGFTFSNAWMHWVRQAPGKGLEWVAQIKDKGNAYAAYYAPSVGGRFTISRDDSKNSIYLQMNSLKTEDTAVYYCHYVHYASASTVLPAFGVDAWGQGTTVTVSS VL: DIVMTQSPLSLPVTPGEPASISCQASQELVHMNRNTYLHWYQQKPGQAPRLLIYKVSNRFPGVPDRFSGSGSGTDFTLKISRVEAEDVGVYYCAQGTSVPFTFGQGTKLEIK
1.3	dBBDu183H G65W / dBBDu072L (antibody, name in Kabat numbering, V domains shown, as m1, one VH change) VH: QVQLVESGGGLVQPGRSLRLSCAASGFTFSNAWMHWVRQAPGKGLEWVAQIKDKGNAYAAYYAPSVKWRFTISRDDSKNSIYLQMNSLKTEDTAVYYCHYVHYASASTVLPAFGVDAWGQGTTVTVSS VL: DIVMTQSPLSLPVTPGEPASISCQASQELVHMNRNTYLHWYQQKPGQAPRLLIYKVSNRFPGVPDRFSGSGSGTDFTLKISRVEAEDVGVYYCAQGTSVPFTFGQGTKLEIK
1.1	dBBDu183H K64H / dBBDu072L (antibody, name in Kabat numbering, V domains shown, as m1, one VH change) VH: QVQLVESGGGLVQPGRSLRLSCAASGFTFSNAWMHWVRQAPGKGLEWVAQIKDKGNAYAAYYAPSVHGRFTISRDDSKNSIYLQMNSLKTEDTAVYYCHYVHYASASTVLPAFGVDAWGQGTTVTVSS VL: DIVMTQSPLSLPVTPGEPASISCQASQELVHMNRNTYLHWYQQKPGQAPRLLIYKVSNRFPGVPDRFSGSGSGTDFTLKISRVEAEDVGVYYCAQGTSVPFTFGQGTKLEIK
1.2	dBBDu183H G65V / dBBDu072L (antibody, name in Kabat numbering, V domains shown, as m1, one VH change) VH: QVQLVESGGGLVQPGRSLRLSCAASGFTFSNAWMHWVRQAPGKGLEWVAQIKDKGNAYAAYYAPSVKVRFTISRDDSKNSIYLQMNSLKTEDTAVYYCHYVHYASASTVLPAFGVDAWGQGTTVTVSS VL: DIVMTQSPLSLPVTPGEPASISCQASQELVHMNRNTYLHWYQQKPGQAPRLLIYKVSNRFPGVPDRFSGSGSGTDFTLKISRVEAEDVGVYYCAQGTSVPFTFGQGTKLEIK
1.6	dBBDu183H H96W / dBBDu072L (antibody, name in Kabat numbering, V domains shown, as m1, one VH change) VH: QVQLVESGGGLVQPGRSLRLSCAASGFTFSNAWMHWVRQAPGKGLEWVAQIKDKGNAYAAYYAPSVKGRFTISRDDSKNSIYLQMNSLKTEDTAVYYCHYVWYASASTVLPAFGVDAWGQGTTVTVSS VL: DIVMTQSPLSLPVTPGEPASISCQASQELVHMNRNTYLHWYQQKPGQAPRLLIYKVSNRFPGVPDRFSGSGSGTDFTLKISRVEAEDVGVYYCAQGTSVPFTFGQGTKLEIK
1.3	dBBDu183H G65Y / dBBDu072L (antibody, name in Kabat numbering, V domains shown, as m1, one VH change) VH: QVQLVESGGGLVQPGRSLRLSCAASGFTFSNAWMHWVRQAPGKGLEWVAQIKDKGNAYAAYYAPSVKYRFTISRDDSKNSIYLQMNSLKTEDTAVYYCHYVHYASASTVLPAFGVDAWGQGTTVTVSS VL: DIVMTQSPLSLPVTPGEPASISCQASQELVHMNRNTYLHWYQQKPGQAPRLLIYKVSNRFPGVPDRFSGSGSGTDFTLKISRVEAEDVGVYYCAQGTSVPFTFGQGTKLEIK
3.3	dBBDu183H H96Y / dBBDu072L (antibody, name in Kabat numbering, V domains shown, as m1, one VH change) VH: QVQLVESGGGLVQPGRSLRLSCAASGFTFSNAWMHWVRQAPGKGLEWVAQIKDKGNAYAAYYAPSVKGRFTISRDDSKNSIYLQMNSLKTEDTAVYYCHYVYYASASTVLPAFGVDAWGQGTTVTVSS VL: DIVMTQSPLSLPVTPGEPASISCQASQELVHMNRNTYLHWYQQKPGQAPRLLIYKVSNRFPGVPDRFSGSGSGTDFTLKISRVEAEDVGVYYCAQGTSVPFTFGQGTKLEIK
1.3	dBBDu183H G65T / dBBDu072L (antibody, name in Kabat numbering, V domains shown, as m1, one VH change) VH: QVQLVESGGGLVQPGRSLRLSCAASGFTFSNAWMHWVRQAPGKGLEWVAQIKDKGNAYAAYYAPSVKTRFTISRDDSKNSIYLQMNSLKTEDTAVYYCHYVHYASASTVLPAFGVDAWGQGTTVTVSS VL: DIVMTQSPLSLPVTPGEPASISCQASQELVHMNRNTYLHWYQQKPGQAPRLLIYKVSNRFPGVPDRFSGSGSGTDFTLKISRVEAEDVGVYYCAQGTSVPFTFGQGTKLEIK
